Assay [1] has as its target T1, FZD5 cysteine-rich domain (CRD), MYC-tagged and GPI-anchored on CHO cells (human, UniProt Q13467 29-156, GPI anchor).
T1 construct: also called FZD5 CRD; CHO-myc-FZDGPI; not shown: MYC tag and GPI anchor signal
T1 sequence: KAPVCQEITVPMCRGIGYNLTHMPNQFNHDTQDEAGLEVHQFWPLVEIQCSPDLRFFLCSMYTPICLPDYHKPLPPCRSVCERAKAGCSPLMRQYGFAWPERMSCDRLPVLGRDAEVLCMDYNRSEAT
Kind of assay: flow cytometry, CHO-CRD cells. (In general: In flow cytometry, cells or beads pass a laser one at a time.)

For assay [2], the target named is T2, FZD6 cysteine-rich domain (CRD), MYC-tagged and GPI-anchored on CHO cells (human, UniProt O60353 20-146, GPI anchor).
T2 construct: also called FZD6 CRD; CHO-myc-FZDGPI; not shown: MYC tag and GPI anchor signal
T2 sequence: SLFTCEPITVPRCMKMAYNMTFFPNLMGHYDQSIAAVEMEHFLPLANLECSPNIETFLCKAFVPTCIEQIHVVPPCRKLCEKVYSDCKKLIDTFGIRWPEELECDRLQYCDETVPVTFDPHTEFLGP
Put plainly: flow cytometry, CHO-CRD cells.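 Also: flow cytometry of Fab binding to CHO cells overexpressing a Frizzled CRD, with binding defined as median fluorescence over twice that of CHO cells lacking any Frizzled CRD.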

In assay [3] the target is T3, FZD10 cysteine-rich domain (CRD), MYC-tagged and GPI-anchored on CHO cells (human, UniProt Q9ULW2 30-156, GPI anchor).
T3 construct: also called FZD10 CRD; CHO-myc-FZDGPI; not shown: MYC tag and GPI anchor signal
T3 sequence: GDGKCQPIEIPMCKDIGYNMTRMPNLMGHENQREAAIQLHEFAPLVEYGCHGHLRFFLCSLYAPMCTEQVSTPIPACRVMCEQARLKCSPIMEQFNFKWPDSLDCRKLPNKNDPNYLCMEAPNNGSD
Kind of assay: flow cytometry, CHO-CRD cells.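 Also: flow cytometry of Fab binding to CHO cells overexpressing a Frizzled CRD, with binding defined as median fluorescence over twice that of CHO cells lacking any Frizzled CRD.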

Assay [4] has as its target T4, FZD3 cysteine-rich domain (CRD), MYC-tagged and GPI-anchored on CHO cells (human, UniProt Q9NPG1 24-150, GPI anchor).
T4 construct: domain: cysteine-rich domain (CRD); also called FZD3 CRD; CHO-myc-FZDGPI; not shown: MYC tag and GPI anchor signal
T4 sequence (looked up): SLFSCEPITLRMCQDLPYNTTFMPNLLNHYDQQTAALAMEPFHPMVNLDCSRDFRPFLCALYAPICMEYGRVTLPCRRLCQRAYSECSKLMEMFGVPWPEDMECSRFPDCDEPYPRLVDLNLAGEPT
Put plainly: flow cytometry, CHO-CRD cells.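 Also: flow cytometry of Fab binding to CHO cells overexpressing a Frizzled CRD, with binding defined as median fluorescence over twice that of CHO cells lacking any Frizzled CRD.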

Assay [5] concerns the target T5, FZD4 cysteine-rich domain (CRD), MYC-tagged and GPI-anchored on CHO cells (human, UniProt Q9ULV1 42-167, GPI anchor).
T5 construct: also called FZD4 CRD; CHO-myc-FZDGPI; not shown: MYC tag and GPI anchor signal
T5 sequence: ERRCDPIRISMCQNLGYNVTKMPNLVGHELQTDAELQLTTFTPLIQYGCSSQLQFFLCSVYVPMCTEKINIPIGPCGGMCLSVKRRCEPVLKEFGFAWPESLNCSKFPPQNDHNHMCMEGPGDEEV
Kind of assay: flow cytometry, CHO-CRD cells.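 Also: flow cytometry of Fab binding to CHO cells overexpressing a Frizzled CRD, with binding defined as median fluorescence over twice that of CHO cells lacking any Frizzled CRD.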

Assay [6] concerns the target T6, FZD7 cysteine-rich domain (CRD), MYC-tagged and GPI-anchored on CHO cells (human, UniProt O75084 45-169). Put plainly: flow cytometry, CHO-CRD cells.
Assay [7] deals with T7, FZD9 cysteine-rich domain (CRD), MYC-tagged and GPI-anchored on CHO cells (human, UniProt O00144 35-161, GPI anchor).
T7 construct: also called FZD9 CRD; CHO-myc-FZDGPI; not shown: MYC tag and GPI anchor signal
T7 sequence: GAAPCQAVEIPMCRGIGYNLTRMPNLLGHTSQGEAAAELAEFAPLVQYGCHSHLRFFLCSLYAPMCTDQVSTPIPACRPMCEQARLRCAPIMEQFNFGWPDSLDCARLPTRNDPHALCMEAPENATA
Kind of assay: flow cytometry, CHO-CRD cells.

Assay [8] has as its target T1, FZD5 cysteine-rich domain (CRD), …. Kind of assay: flow cytometry on CHO-GPI cells over-expressing the Frizzled CRD.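 Also: binding of recombinant anti-Frizzled Fabs to the cells, read as fold mean fluorescence intensity above secondary-antibody-only background and normalized to control CHO-GPI cells.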
Assay [9] has as its target T2, FZD6 cysteine-rich domain (CRD), …. The assay is described as above.
Assay [10] deals with T3, FZD10 cysteine-rich domain (CRD), …. Described as above.
Assay [11] concerns the target T4, FZD3 cysteine-rich domain (CRD), …. The assay is described as above.
Assay [12] concerns the target T5, FZD4 cysteine-rich domain (CRD), …. The description is as above.
For assay [13], the target named is T6, FZD7 cysteine-rich domain (CRD), …. The description is as above.
The target of assay [14] is T7, FZD9 cysteine-rich domain (CRD), …. The description is as above.
The target of a further assay is FZD7-Fc (UniProt O75084 33-185). Kind of assay: SPR, Frizzled-Fc chimera.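 Also: binding targets are Fc fusions carrying an extracellular Frizzled fragment that contains the CRD.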 A general note: In SPR one partner is held on a chip, and binding of the other changes the refractive index at the surface.
A further assay concerns the target T8, FZD1-Fc (UniProt Q9UP38 73-250, limits assumed).
T8 construct: extracellular domain; also called Frizzled-Fc chimera (FZD1); not shown: Fc part
Kind of assay: SPR, Frizzled-Fc chimera.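 Also: binding targets are Fc fusions carrying an extracellular Frizzled fragment that contains the CRD.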

Assay [15] addresses T9, recombinant human FZD5-Fc chimera (R&D Systems, Catalog no. 1617-FZ) (human, UniProt Q13467 27-167).
T9 construct: used for selection and ELISA; Fc part of the bought chimera not given
T9 sequence: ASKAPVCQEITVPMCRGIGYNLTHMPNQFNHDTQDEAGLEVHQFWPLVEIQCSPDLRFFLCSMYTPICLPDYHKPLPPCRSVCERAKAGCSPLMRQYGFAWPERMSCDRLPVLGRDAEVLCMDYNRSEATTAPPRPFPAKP
Kind of assay: SPR, Frizzled-Fc chimera.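 Also: binding targets are Fc fusions carrying an extracellular Frizzled fragment that contains the CRD.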

Another assay concerns the target T10, FZD2-Fc (UniProt Q14332 24-190, limits assumed).
T10 construct: extracellular domain; also called Frizzled-Fc chimera (FZD2); not shown: Fc part
Put plainly: SPR, Frizzled-Fc chimera.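 Also: binding targets are Fc fusions carrying an extracellular Frizzled fragment that contains the CRD.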

The target in another assay is T11, FZD8-Fc (UniProt Q9H461 28-158, limits assumed).
T11 construct: extracellular domain; also called Frizzled-Fc chimera (FZD8); not shown: Fc part
T11 sequence (looked up): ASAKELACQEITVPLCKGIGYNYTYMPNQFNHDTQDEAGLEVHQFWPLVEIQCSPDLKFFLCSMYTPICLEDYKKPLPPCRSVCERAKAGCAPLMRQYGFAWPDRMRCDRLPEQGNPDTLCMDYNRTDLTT
Kind of assay: SPR, Frizzled-Fc chimera.

Assay [16] has as its target T12, FZD8 cysteine-rich domain (CRD), MYC-tagged and GPI-anchored on CHO cells (human, UniProt Q498S8 31-155 (rat entry), GPI anchor).
T12 construct: also called FZD8 CRD; CHO-myc-FZDGPI; not shown: MYC tag and GPI anchor signal
T12 sequence: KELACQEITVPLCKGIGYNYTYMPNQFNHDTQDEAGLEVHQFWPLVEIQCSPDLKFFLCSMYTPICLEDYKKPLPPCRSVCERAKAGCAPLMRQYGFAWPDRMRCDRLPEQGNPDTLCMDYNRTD
Kind of assay: flow cytometry, CHO-CRD cells.

Assay [17] concerns the target T13, FZD2 cysteine-rich domain (CRD), MYC-tagged and GPI-anchored on CHO cells (human, UniProt Q14332 35-161). Put plainly: flow cytometry, CHO-CRD cells.
For assay [18], the target named is T14, FZD1 cysteine-rich domain (CRD), MYC-tagged and GPI-anchored on CHO cells (human). Put plainly: flow cytometry, CHO-CRD cells.
The target of assay [19] is T12, FZD8 cysteine-rich domain (CRD), …. Put plainly: flow cytometry on CHO-GPI cells over-expressing the Frizzled CRD.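 Also: binding of recombinant anti-Frizzled Fabs to the cells, read as fold mean fluorescence intensity above secondary-antibody-only background and normalized to control CHO-GPI cells.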
Assay [20] concerns the target T13, FZD2 cysteine-rich domain (CRD), …. The description is as above.
In assay [21] the target is T14, FZD1 cysteine-rich domain (CRD), …. The description is as above.

T8 sequence (Q9UP38 73-250 limits assumed): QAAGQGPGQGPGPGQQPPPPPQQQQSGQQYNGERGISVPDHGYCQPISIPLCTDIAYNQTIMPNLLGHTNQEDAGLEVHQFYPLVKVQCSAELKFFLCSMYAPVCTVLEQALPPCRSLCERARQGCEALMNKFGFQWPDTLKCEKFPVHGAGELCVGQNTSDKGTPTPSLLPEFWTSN

B1: Fab-2928 (Fab, V domains shown)
VH: EVQLVESGGGLVQPGGSLRLSCAASGFNISYSSIHWVRQAPGKGLEWVASIYPSYSSTYYADSVKGRFTISADTSKNTAYLQMNSLRAEDTAVYYCARYYAMDYWGQGTLVTVSS
VL: DIQMTQSPSSLSASVGDRVTITCRASQSVSSAVAWYQQKPGKAPKLLIYSASSLYSGVPSRFSGSRSGTDFTLTISSLQPEDFATYYCQQAFYYPITFGQGTKVEIK
notes: Fab; also called Fv-2928
As for B1, the median fluorescence in assay [1] amounted to 42.9; in [2], 3.08; in [3] it was 3.96; in assay [4], 4.37; in assay [5], 5.19; in assay [6], 5.94. In [7], this molecule yielded a median fluorescence of 4.49. Moreover, the “fold-increase in mean fluorescence intensity over background (secondary antibody alone), normalized to control CHO-GPI” value in assay [8] came out at 13 fold. In addition, the binding result in assay [9], in [10], in [11], in assay [12], in [13] and in [14] was “no binding (tested: 200 nM)” each time.

B2: IgG-2916 (antibody, V domains shown)
VH: EVQLVESGGGLVQPGGSLRLSCAASGFNISYSSIHWVRQAPGKGLEWVASIYPSYSYTYYADSVKGRFTISADTSKNTAYLQMNSLRAEDTAVYYCARYGYYGMDYWGQGTLVTVSS
VL: DIQMTQSPSSLSASVGDRVTITCRASQSVSSAVAWYQQKPGKAPKLLIYSASSLYSGVPSRFSGSRSGTDFTLTISSLQPEDFATYYCQQWYHYPYLITFGQGTKVEIK
Regarding B2, the Kd (commonly the constant that tells how readily two partners part at equilibrium) was found to be 0.496 nM with FZD7-Fc; 1.24 nM in the assay with FZD1-Fc; 0.00988 nM in [15]; 0.905 nM in the assay with FZD2-Fc; 0.0455 nM in the assay with FZD8-Fc. Moreover, the koff – broadly, the first-order rate constant of dissociation – in the assay with FZD7-Fc amounted to 0.000382 s⁻¹; with FZD1-Fc, 0.000451 s⁻¹; in [15], 1.3e-05 s⁻¹; with FZD2-Fc, 0.000452 s⁻¹; with FZD8-Fc, 4.75e-05 s⁻¹. For the same molecule, the kon (as a rule, the rate constant with which the complex forms) with FZD7-Fc came to 770000 M⁻¹ s⁻¹; in the assay with FZD1-Fc, 364000 M⁻¹ s⁻¹; in assay [15] it was 1.32e+06 M⁻¹ s⁻¹; with FZD2-Fc, 500000 M⁻¹ s⁻¹; in the assay with FZD8-Fc, 1.04e+06 M⁻¹ s⁻¹.

B3: Fab-2919 (Fab, V domains shown)
VH: EVQLVESGGGLVQPGGSLRLSCAASGFNISYSYIHWVRQAPGKGLEWVASIYSSSGSTSYADSVKGRFTISADTSKNTAYLQMNSLRAEDTAVYYCARGAIDYWGQGTLVTVSS
VL: DIQMTQSPSSLSASVGDRVTITCRASQSVSSAVAWYQQKPGKAPKLLIYSASSLYSGVPSRFSGSRSGTDFTLTISSLQPEDFATYYCQQWYSSGHVLITFGQGTKVEIK
notes: Fab
Take B3: the median fluorescence turned out to be 43.7 in assay [1]; 20.5 in assay [16]; 4.26 in [17]; 2.64 in assay [2]; 2.48 in assay [3]; 3.96 in [4]. Further, the median fluorescence in assay [18] was determined as 3.52; in [5], 3.79; in assay [6], 2.41; in assay [7] it was 2.79. The “fold-increase in mean fluorescence intensity over background (secondary antibody alone), normalized to control CHO-GPI” value in [8] stood at 19.2 fold; in assay [19], 14.4 fold. For the same molecule, the binding result in assay [20], in assay [9], in assay [10], in assay [11], in assay [21] and in assay [12] was “no binding (tested: 200 nM)” in each case. The binding result in assay [13] and in assay [14] was “no binding (tested: 200 nM)” each time.

Source of the values: patent US20210253718A1 (MODMAB THERAPEUTICS, published 2021).
